Changes are numbered by the printed parent chain. Blank lines part the entries; values can stand above or below the binder they belong to.
Assays:
Details in all cases: partners not purified
Cdc1-J7 = molecular target: T1, Cdc1-J7 (Schizosaccharomyces pombe, UniProt P87324 1-462, Met-GlyValProLeuMet-Glu); test: two-hybrid; LexA-Cdc1 bait (pBTM116 or pBTM116BN) with Gal4 activation domain-Cdc27 prey (pGAD2F-Cdc27) in S. cerevisiae CTY10-5d; ONPG liquid culture beta-galactosidase assay, mean of triplicates, as percent of wild-type Cdc1
T1 construct: Cdc1, S. pombe, with a pentapeptide inserted after residue 393; source: yeast two-hybrid fusion, in S. cerevisiae CTY10-5d
T1 sequence (looked up): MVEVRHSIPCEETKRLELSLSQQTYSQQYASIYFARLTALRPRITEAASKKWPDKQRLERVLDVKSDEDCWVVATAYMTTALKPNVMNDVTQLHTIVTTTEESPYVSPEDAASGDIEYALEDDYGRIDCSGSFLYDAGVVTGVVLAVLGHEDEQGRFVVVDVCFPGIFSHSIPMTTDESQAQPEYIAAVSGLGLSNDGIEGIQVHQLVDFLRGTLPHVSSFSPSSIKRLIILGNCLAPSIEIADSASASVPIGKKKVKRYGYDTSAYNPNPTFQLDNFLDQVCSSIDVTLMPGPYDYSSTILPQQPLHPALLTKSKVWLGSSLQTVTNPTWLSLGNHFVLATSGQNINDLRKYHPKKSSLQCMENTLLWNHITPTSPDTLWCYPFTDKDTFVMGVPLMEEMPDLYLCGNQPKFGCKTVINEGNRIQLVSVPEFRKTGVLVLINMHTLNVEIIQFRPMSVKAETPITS

Cdc1-A5 = molecular target: T2, Cdc1-A5 (Schizosaccharomyces pombe, UniProt P87324 1-462, Asn328Ala); test: as above
T2 construct: Cdc1, S. pombe, point mutant; source: yeast two-hybrid fusion, in S. cerevisiae CTY10-5d
T2 sequence (looked up): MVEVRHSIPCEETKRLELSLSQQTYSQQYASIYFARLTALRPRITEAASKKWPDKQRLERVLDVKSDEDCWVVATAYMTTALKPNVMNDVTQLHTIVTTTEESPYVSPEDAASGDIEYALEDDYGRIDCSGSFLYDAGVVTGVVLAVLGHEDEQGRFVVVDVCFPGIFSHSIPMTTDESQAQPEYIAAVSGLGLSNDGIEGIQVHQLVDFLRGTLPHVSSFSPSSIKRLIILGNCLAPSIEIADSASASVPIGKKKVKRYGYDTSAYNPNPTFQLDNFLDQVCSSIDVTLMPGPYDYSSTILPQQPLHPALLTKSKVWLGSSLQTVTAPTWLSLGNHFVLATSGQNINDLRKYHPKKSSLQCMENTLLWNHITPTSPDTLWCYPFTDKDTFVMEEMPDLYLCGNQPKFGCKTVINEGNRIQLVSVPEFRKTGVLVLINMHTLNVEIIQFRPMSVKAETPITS

Cdc1-E2 = molecular target: T3, Cdc1-E2 (Schizosaccharomyces pombe, UniProt P87324 1-26); test: as above
T3 construct: Cdc1, S. pombe, truncated after amino acid 26 by a 16 nt insertion; residues coded by the 16 nt insertion before the stop codon (printed as GlyValProLysTer); source: yeast two-hybrid fusion, in S. cerevisiae CTY10-5d
T3 chain: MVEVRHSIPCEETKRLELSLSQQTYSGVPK

Cdc1-J8 = molecular target: T4, Cdc1-J8 (Schizosaccharomyces pombe, UniProt P87324 1-462, Lys-GlyValProLeuLys-Pro); test: as above
T4 construct: Cdc1, S. pombe, with a pentapeptide inserted after residue 83; also called J19; source: yeast two-hybrid fusion, in S. cerevisiae CTY10-5d
T4 sequence (looked up): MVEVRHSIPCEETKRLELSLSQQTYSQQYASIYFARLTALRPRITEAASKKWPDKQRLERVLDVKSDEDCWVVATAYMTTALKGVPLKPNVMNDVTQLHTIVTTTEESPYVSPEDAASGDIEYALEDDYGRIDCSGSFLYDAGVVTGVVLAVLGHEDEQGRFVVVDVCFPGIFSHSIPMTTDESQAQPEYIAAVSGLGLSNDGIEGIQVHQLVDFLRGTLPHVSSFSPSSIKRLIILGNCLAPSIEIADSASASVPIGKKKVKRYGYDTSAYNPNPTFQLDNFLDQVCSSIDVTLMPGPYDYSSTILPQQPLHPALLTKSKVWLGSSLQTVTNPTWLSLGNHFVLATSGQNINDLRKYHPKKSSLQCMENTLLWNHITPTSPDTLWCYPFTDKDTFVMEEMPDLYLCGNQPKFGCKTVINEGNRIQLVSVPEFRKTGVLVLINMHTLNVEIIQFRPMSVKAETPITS

Cdc1-A2 = molecular target: T5, Cdc1-A2 (Schizosaccharomyces pombe, UniProt P87324 1-462, Gly293Ala); test: two-hybrid; LexA-Cdc1 bait (pBTM116 or pBTM116BN) with Gal4-Pol3 prey and co-expressed c-myc-tagged Cdc27 (pAA-Cdc27) in S. cerevisiae CTY10-5d; ONPG liquid culture beta-galactosidase assay, mean of triplicates, as percent of wild-type Cdc1
T5 construct: Cdc1, S. pombe, point mutant; source: yeast two-hybrid fusion, in S. cerevisiae CTY10-5d
T5 sequence (looked up): T2 sequence (looked up) with G293A, A328N

two-hybrid beta-galactosidase activity, % of wild-type Cdc1 (Cdc1-J7): 19%
two-hybrid beta-galactosidase activity, % of wild-type Cdc1 (Cdc1-A5): 37%
two-hybrid beta-galactosidase activity, % of wild-type Cdc1 (Cdc1-E2): < 1%
two-hybrid beta-galactosidase activity, % of wild-type Cdc1 (Cdc1-J8): 128%
B1: Cdc27 (fission yeast DNA polymerase delta C-subunit) (natural protein, Schizosaccharomyces pombe, UniProt P30261 1-372, looked up)
chain: MEEWRNFLDIKVINESSLVTVDNLSLQLDISSEKAQEYLNMFYQGNDFLYPIYLIHGQPIDDEINLEIDEESQPISNFPVLQYILCDKSSLQEKQSRLKSGYKTVIFALSSAPLSDFDELLPAVYEIREKDVLYKKEDADKYGFIFNENSVPRVLKKAPSTHSPQLSVPSKTSTIDKTDTRSTEKTKGKDIFSNARNQKGNSSRKNKKAPLENHKEKEPLLPKEEKLSEQAKRERDDLKNIMQLEDESVSTTSVHDSEDDNLDSNNFQLEIGTEAKSAAPDEPQEIIKSVSGGKRRGKRKVKKYATTKDEEGFLVTKEEEVWESFSEDENISTGTSNVVRNKPTTVNIATKKKNTAQSKPQQKSIMSFFGKK
notes: DNA polymerase delta C-subunit Cdc27, S. pombe; prey plasmid pGAD2F-Cdc27; also called pGAD2F-Cdc27; source: yeast two-hybrid fusion, in S. cerevisiae CTY10-5d

two-hybrid beta-galactosidase activity, % of wild-type Cdc1 (Cdc1-A2): < 1%
B2: Pol3 (fission yeast DNA polymerase delta catalytic subunit) (natural protein, Schizosaccharomyces pombe, UniProt P30316 1-1086, looked up)
chain: MTDRSSNEGVVLNKENYPFPRRNGSIHGEITDVKRRRLSERNGYGDKKGSSSKEKTSSFEDELAEYASQLDQDEIKSSKDQQWQRPALPAINPEKDDIYFQQIDSEEFTEGSVPSIRLFGVTDNGNSILVHVVGFLPYFYVKAPVGFRPEMLERFTQDLDATCNGGVIDHCIIEMKENLYGFQGNEKSPFIKIFTTNPRILSRARNVFERGEFNFEELFPVGVGVTTFESNTQYLLRFMIDCDVVGMNWIHLPASKYQFRYQNRVSNCQIEAWINYKDLISLPAEGQWSKMAPLRIMSFDIECAGRKGVFPDPSIDPVIQIASIVTQYGDSTPFVRNVFCVDTCSQIVGTQVYEFQNQAEMLSSWSKFVRDVDPDVLIGYNICNFDIPYLLDRAKSLRIHNFPLLGRIHNFFSVAKETTFSSKAYGTRESKTTSIPGRLQLDMLQVMQRDFKLRSYSLNAVCSQFLGEQKEDVHYSIITDLQNGTADSRRRLAIYCLKDAYLPQRLMDKLMCFVNYTEMARVTGVPFNFLLARGQQIKVISQLFRKALQHDLVVPNIRVNGTDEQYEGATVIEPIKGYYDTPIATLDFSSLYPSIMQAHNLCYTTLLDSNTAELLKLKQDVDYSVTPNGDYFVKPHVRKGLLPIILADLLNARKKAKADLKKETDPFKKAVLDGRQLALKVSANSVYGFTGATNGRLPCLAISSSVTSYGRQMIEKTKDVVEKRYRIENGYSHDAVVIYGDTDSVMVKFGVKTLPEAMKLGEEAANYVSDQFPNPIKLEFEKVYFPYLLISKKRYAGLFWTRTDTYDKMDSKGIETVRRDNCPLVSYVIDTALRKMLIDQDVEGAQLFTKKVISDLLQNKIDMSQLVITKALSKTDYAAKMAHVELAERMRKRDAGSAPAIGDRVAYVIIKGAQGDQFYMRSEDPIYVLENNIPIDAKYYLENQLSKPLLRIFEPILGEKASSLLHGDHTRTISMAAPSVGGIMKFAVKVETCLGCKAPIKKGKTALCENCLNRSAELYQRQVAQVNDLEVRFARLWTQCQRCQGSMHQDVICTSRDCPIFYMRIAEHKKLQQSVDLLKRFDEMSW
notes: DNA polymerase delta catalytic subunit Pol3, S. pombe; prey plasmid named pACT-Pol3 in the results and pGAD2F-Pol3 in the methods; also called Gal4-Pol3; pACT-Pol3; source: yeast two-hybrid fusion, in S. cerevisiae CTY10-5d

Source: publication PMC2734569, “Functional mapping of the fission yeast DNA polymerase δ B-subunit Cdc1 by site-directed and random pentapeptide insertion mutagenesis” (BMC Molecular Biology, 2009)
